Measured values taken from PMC10885737 (Journal of molecular biology, 2023).
Read-outs that look alike come from different tables or passages of the source.

Columns and labels:
[1] = biological target: soluble, disulfide-crosslinked HIV-1 CA hexamer (A14C/E45C/W184A/M185A) (HIV-1); test: cryo-EM structure
[2] = biological target: soluble, disulfide-crosslinked HIV-1 CA hexamer (A14C/E45C/W184A/M185A) (HIV-1); test: nanoDSF
[3] = biological target: disulfide-crosslinked A14C/E45C HIV-1 CA tubes (HIV-1); test: co-sedimentation
[4] = biological target: soluble disulfide-stabilized HIV-1 CA hexamer (A14C/E45C/W184A/M185A) (Human immunodeficiency virus type 1 group M subtype B, UniProt P12493, A146C/E177C/M317A/W316A); test: biochemical; type: binding
[5] = biological target: soluble, disulfide-crosslinked HIV-1 CA hexamer (A14C/E45C/W184A/M185A) (HIV-1); test: nanoDSF; remark: listed apart in the source
[6] = Observation of proteolysis during protein preparation; type: physicochemical; details: recombinant protein preparation from E. coli

## soluble, disulfide-crosslinked HIV-1 CA hexamer (A14C/E45C/W184A/M185A) (complex)
[1]
  stoichiometry N: 6

## PQBP1 Nt peptide (residues 1–46) (from UniProt O60828 1-46)
[2]
  Kd: 503 nM

## full-length recombinant PQBP1 (polyglutamine binding protein 1) (from UniProt O60828 1-265) (natural protein)
[3]
  percent of input pelleted with the CA tubes: 17%
[2]
  shift in apparent Tm of CA: 2 °C

## Ac-EIIAEDYDDDPVDYE-NH2 [15–6]
[4]
  Kd: 54 ± 0.4 nM

B1: PQBP1 15-mer peptide 15–6 (peptide)
peptide: Ac-EIIAEDYDDDPVDYE-NH2
[5]
  Kd: 54 nM

B2: DE-to-G: recombinant DE-to-G PQBP1 mutant protein (protein)
chain: MPLPVALQTRLAKRGILKHLEPEPGGGIIAEDYGGGPVDYEATRLEGLPPSWYKVFDPSCGLPYYWNADTDLVSWLSPHDPNSVVTKSAKKLRSSNADAEEKLDRSHDKSDRGHDKSDRSHEKLDRGHDKSDRGHDKSDRDRERGYDKVDRERERDRERDRDRGYDKADREEGKERRHHRREELAPYPKSKKAVSRKDEELDPMDPSSYSDAPRGTWSTGLPKRNEAKTGADTTAAGPLFQQRPYPSPGAVLRANAEASRTKQQD
modifications: left off: His-tag (with Gly-Gly linker), C-terminal, state not stated
[6]
  Susceptibility to proteolysis: prone to proteolysis
